Experiment: soluble on expression in E. coli; label from the status in PepcDB or PDB records

Row | Sequence | soluble on expression in E. coli
1 | MSLNIVTLISWDFKRNNESFQRAIINGYDYWSRILDDHGVEKYVILLTCNRVELYYRGDPFDVQEKGYNIISDDMAINHLFHVAAGLDSMSIGENEVLKQVKQAYEKSSSMGKSDKFLSLIFQRAISVGKLVRSKTGIGKGKVSIPSIVYDIVRKNGGNKILLVGNGMLASEIAPYFSYPQYKVTVAGRNIDHVRAFAEKYEYEYVLINDIDSLIKNNDVIITATSSKTPIVEERSLMPGKLFIDLGNPPNIERGNNVITLDEIYEISKKNEMLREEKINQAEILIENEMKATMNKIKDLMIDDIFSQFYRFASVVQTMEIQKFRKMHPEVNENDLEALAHSIINKILNVPVTTLKAVSRSQGNSDFNRLFESFSSNFNDIVSAALQSYEGLRDTQSLRDRTRQLLQKSEGHHHHHH | soluble
2 | SYPYILISGHKHPRLSMHRGAKKRKGEYFGPYPDSGAVRETLHLLQKIFPVRQCEDTVYSNRTRPCLMYQIGRCAGPCVSSIISDEEYAELVGFVRLFLQGKDQQVLKQLIEKMEVASQQLRFEDAAKFRDQIQAIRRVQEQQYVSEDSMDDMDVLGFAQENGIACIHILMIRQGKVLGSRSHFPKIPQNTSQQEVFDSFLTQYYLSHNEARTIPSRIILNQELADDLEPIQKALSEVAGRKVHFHTSPTGARGRYLKLSNTNALTAITTKINHKMTINQRFKALRETLGMESIMRMECFDISHTMGESTIASCVVFNNEGPVKQEYRRYNITGITGGDDYAAMGQALERRYSKQLDVEKIPDIIFIDGGKGQLNRAHEIIAQYWGDWPKRPIMIGIAKGVTRKPGLETLITVDGEEFNLPSDAPALHLIQHIRDESHNHAIAGHRAKRGKTRR | not soluble
3 | MVSVEDYYTSEEKICDGIFVGNYGERKGSRYLFQIWDKVNEKIDAKLCIIGKGWSEIPKNSVYYGFVTEREKIDLLAKSKVFVFPSLYEGFALAVTEALSAYLPVVTWDLKWSERYPVAIRVTYPDISSFAEEVVKLLKDEKLRKSIGEKSREL | soluble
4 | LLNQGGEKLLDYYFTKTNYMERENARRYNDLRDYVKKNKLSTEDTDRLAEWVRRQEVVWMQMYRDHILLYDSQFPYMKANPEYHVTGQFYEWNGYEMIDFQDGEALVFLTGMYTYQFFNY | not soluble
5 | MSKVPVVGIVAALLPEMGIGFQGNLPWRLAKEMKYFREVTTLTNDNSKQNVVIMGRKTWESIPQKFRPLPKRINVVVSRSFDGELRKVEDGIYHSNSLRNCLTALQSSLANENKIERIYIIGGGEIYRQSMDLADHWLITKIMPLPETTIPQMDTFLQKQELEQRFYDNSDKLVDFLPSSIQLEGRLTSQEWNGELVKGLPVQEKGYQFYFTLYTKKLEHHHHHHHH | soluble
6 | SSLRLPSAAELSGQWVLSGAEQHCDIRLNTDVLDGTTWKLAGDTACLQKLLPEAPVGWRPTPDGLTLTQADGSAVAFFSRNRDRYEHKLVDGSVRTLKKKA | soluble
7 | MGSDKIHHHHHHMEHLHRKQITNTFTETFPGDLSMNNTTRQTPGVLYCSVLPTPVHHPQLLAWSADVAEMLGLESPVPEDVLILGGNTVNPTMKPYASCYAGHQFGNWAGQLGDGRAISLGFCSGKDSMEYELQLKGAGPTPYSRNSDGRAVLRSSLREYLMSEAMHYLGVPTTRALSLVSTGDAVLRDMFYNGHAAYEPGAVVLRVAPSFIRFGNFEILAERNNRDLSQQLCDWVITRYYPEIRGEDRVVQLFQAVAERTADMVVQWLRVGFVHGVMNTDNMSILGVTIDYGPYSFVDEYDARFTPNTTDLPGRRYAFGNQAAVAYWNLGRLANALAFLVPETDKLVAVLKNYQDVYETKYYTMMANKLGFDALREDDRLLIDSFEEMLRTVKPDMTMFYQLLIDLPADPGTAADVKQFFQSCFYTEADEALLHTCIAAYSKRIKTNTCSKEVSAEKMRAANPRFVLRNYILHEAIEKLEKGDDALLKKLEEYIKQPYSKNADEYFIKRPDWAAQKAGCSMLSCSS | not soluble
8 | MERLEEARKRLEEARRVAVLTGAGISKPSGIPTFRDAEGLWKNFNPLDYATPEAYARDPEKVWAWYAWRIQKVREAKPNPAHYALVELERRILSRGGSFLLVTQNVDGLHALAGSQNLVELHGNLLRARCEACGKRFPLPEAFAPPPFCPACGHRARPDVVWFGEFLPEGAWERAERAFAEADFALVVGTSAEVEPAASLGRIAFASGAYLVEVNPEPTPLTPLAHLSLRTGAVEGMALLLPPSPEDQAEGHLS | soluble
